According to PMC10766600, “Antigen self-anchoring onto bacteriophage T5 capsid-like particles for vaccine design” (NPJ Vaccines, 2024):

Molecular target: T1, decoration protein pb10 of bacteriophage T5, full length (bacteriophage T5, UniProt Q6QGD6 1-164)
T1 construct: Cloned in pET28b; also called native pb10; unmodified pb10; source: E. coli BL21 (DE3), purified (HisTrap FF, HiTrap SP, Superdex 75)
T1 sequence (looked up): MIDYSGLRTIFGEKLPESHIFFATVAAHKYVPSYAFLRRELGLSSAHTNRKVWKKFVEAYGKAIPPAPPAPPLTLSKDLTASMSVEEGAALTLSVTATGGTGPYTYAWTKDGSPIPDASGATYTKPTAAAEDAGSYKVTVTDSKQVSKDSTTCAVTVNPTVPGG
Assay: SPR; T5 CLPs captured on a CM5 chip through covalently coupled rabbit polyclonal anti-capsid antibodies (about 900 RU); pb10 or chimeras injected at 0.25-4 nM for 200 s at 50 µL/min; 25 °C; PBS with 0.05% Tween 20 and 1 mg/mL BSA; simple Langmuir model
Conditions: both partners purified

B1: bacteriophage T5 capsid-like particles (T5 CLPs) (complex)
chain: AVNQSSSVEVSSESYETIFSQRIIRDLQKELVVGALFEELPMSSKILTMLVEPDAGKATWVAASTYGTDTTTGEEVKGALKEIHFSTYKLAAKSFITDETEEDAIFSLLPLLRKRLIEAHAVSIEEAFMTGDGSGKPKGLLTLASEDSAKVVTEAKADGSVLVTAKTISKLRRKLGRHGLKLSKLVLIVSMDAYYDLLEDEEWQDVAQVGNDSVKLQGQVGRIYGLPVVVSEYFPAKANSAEFAVIVYKDNFVMPRQRAVTVERERQAGKQRDAYYVTQRVNLQRYFANGVVSGTYAAS
modifications: DNA-free expanded capsid lacking pb10 (T5 dec deletion, stAmN5). Mature pb8 after removal of the scaffolding domain; limits from the UniProt chain feature, matching the 299 aa entity of PDB 6OMC/6OMA.
**Q.** How did the Kd turn out when B1 was run?
**A.** Its Kd is 1.5 to 2.3 pM.
